Target: NOD mouse SIRPα-Fc fusion protein (mouse (NOD strain)) (UniProt P97797)
Assay: competitive ELISA

| fold improvement in affinity against parent 29-AM3-35 [fold] | Binder |
| --- | --- |
| 2 | SIRP29-AM4-1 Fab (Fab, V domains shown) VH: EVQLVESGGGLVQPGGSLRLSCAASGFNISYYFIHWVRQAPGKGLEWVASVYSSFGYTYYADSVKGRFTISADTSKNTAYLQMNSLRAEDTAVYYCARFTFPGAMDGFFGAYLGSLDYWGQGTLVTVSS VL: DIQMTQSPSSLSASVGDRVTITCRASQSVSSAVAWYQQKPGKAPKLLIYSASSLYSGVPSRFSGSRSGTDFTLTISSLQPEDFATYYCQQAVNWVGALVTFGQGTKVEIK |
| 2 | SIRP29-AM4-5 Fab (Fab, V domains shown) VH: EVQLVESGGGLVQPGGSLRLSCAASGFNISYYFIHWVRQAPGKGLEWVASVYSSFGYTYYADSVKGRFTISADTSKNTAYLQMNSLRAEDTAVYYCARFTFPGLFDGFFGAYLGSLDYWGQGTLVTVSS VL: DIQMTQSPSSLSASVGDRVTITCRASQSVSSAVAWYQQKPGKAPKLLIYSASSLYSGVPSRFSGSRSGTDFTLTISSLQPEDFATYYCQQAVNWVGALVTFGQGTKVEIK |

Reference: patent publication US20140242095A1
